Measured values published in patent publication US12428627B2, “Mutant p-hydroxyphenylpyruvate dioxygenase, and coding nucleic acid and use thereof” (Qingdao Kingagroot Chemical Compound Co., Ltd., priority 2018, dated 2025).
Changes are numbered by the printed parent chain. In names and notes the source's numbering stands.

B1: G342D: single-site mutant rice HPPD (protein, listed as Oryza sativa)
chain: MPPTPTPTATTGAVSAAAAAGENAGFRLVGHRRFVRANPRSDRFQALAFHHVELWCADAASAAGRFAFALGAPLAARSDLSTGNSAHASLLLRSASVAFLFTAPYGGDHGVGADAATTASIPSFSPGAARRFAADHGLAVHAVALRVADAADAFRASVAAGARPAFQPADLGGGFGLAEVELYGDVVLRFVSHPDGADAPFLPGFEGVSNPGAVDYGLRRFDHVVGNVPELAPVAAYISGFTGFHEFAEFTAEDVGTAESGLNSVVLANNAETVLLPLNEPVHGTKRRSQIQTYLDHHGGPGVQHIALASDDVLGTLREMRARSAMGGFEFLAPPPPNYYDDVRRRAGDVLSEEQINECQELGVLVDRDDQGVLLQIFTKPVGDRPTFFLEMIQRIGCMEKDESGQEYQKGGCGGFGKGNFSELFKSIEEYEKSLEAKQAPTVQGS
modifications: The amino acid sequence of Wild-Type rice HPPD protein (OsHPPD _WT)
B2: H141R/N338D/G342D: mutant rice HPPD (protein)
chain: B1 chain with H141R, N338D
B3: G342D/R346C: mutant rice HPPD (protein, listed as Oryza sativa)
chain: B1 chain with R346C
modifications: The amino acid sequence of Wild-Type rice HPPD protein (OsHPPD _WT)
B4: N338S/G342D/R346C (protein)
chain: B1 chain with N338S, R346C
B5: 103: single-site mutant rice HPPD, A103S (protein)
chain: B1 chain with A57S, A103S, D342G
modifications: The amino acid sequence of rice HPPD mutant (OsHPPD_A103S)
notes: single-site mutant rice HPPD, A103S
B6: H141R/N338D/G342D/R346H: mutant rice HPPD (protein)
chain: B1 chain with H141R, N338D, R346H
B7: H141R/N338D/G342D/P386T: mutant rice HPPD (protein)
chain: B1 chain with H141R, N338D, P386T
B8: H141R/N338D/N420S: mutant rice HPPD (protein)
chain: B1 chain with H141R, N338D, D342G, N420S
B9: H141R/N338D/G342D/R346C: mutant rice HPPD (protein)
chain: B1 chain with H141R, N338D, R346C
B10: H141R/N338D/G342D/K418P/G419F/N420S: mutant rice HPPD (protein)
chain: B1 chain with H141R, N338D, K418P, G419F, N420S
B11: H141R/G342D/K418P: mutant rice HPPD (protein)
chain: B1 chain with H141R, K418P
B12: H141R/G342D/G419F: mutant rice HPPD (protein)
chain: B1 chain with H141R, G419F
B13: N338D/G342D/R346C: mutant rice HPPD (protein, listed as Oryza sativa)
chain: B1 chain with N338D, R346C
modifications: The amino acid sequence of Wild-Type rice HPPD protein (OsHPPD _WT)
B14: N338D/G342D: mutant rice HPPD (protein)
chain: B1 chain with N338D

How the values were obtained:
[1] = test system: rice HPPD (OsHPPD); assay: Color reaction of recombinant E. coli expressing wild-type or mutant rice HPPD, cultured in 96-well plate in medium containing an HPPD-inhibiting herbicide and tyrosine; type: cell-based, Oryza sativa; parameters: key to relative resistance to Tembotrione / relative resistance to Benzuofucaotong metabolic product / relative resistance to Huanbifucaotong / relative resistance to Topramezone / relative resistance to Mesotrione / resistance to Tembotrione / resistance to Benzucfucaotong metabolic product / resistance to Huanbifucaotong / resistance to Topramezone / resistance to Mesotrione: The more the plus sign “+”, the deeper the color and the higher the resistance/tolerance as compared to the wild type; conditions: for resistance ranking in color reaction: compound 101
Description: The rice full-length OsHPPD enzyme has 446 amino acids and its amino acid sequence is set forth in SEQ ID NO: 2, wherein the amino acids 1-50 are considered to constitute a signal peptide which is responsible for directing into chloroplast (Siehl et al. Plant Physiol. 2014 November; 166(3): 1162-1176). Therefore, from the amino acid at the 51-position to the amino acid at the […], a saturated random mutation was made for each amino acid. This was achieved by performing a bridge PCR by using a primer containing a coding sequence of an amino acid to be mutated into NNK and another suitable conventional primer. In NNK, N represented A/T/G/C and K represented G/T, and the NNK codon could encode any one of 20 amino acids or terminators. Accordingly, this was a saturated mutation. Please see: Kille S. Acevedo-Rocha C G, Parra L P, Zhang Z G, Opperman D J, Reetz M T, Acevedo J P (2013) Reducing codon redundancy and screening effort of combinatorial protein libraries created by saturation mutagenesis. ACS Synth Biol 2(2):83-92; Directed Evolution Library Creation: methods and protocols 2nd ed. Edited by Elizabeth M. J. Gillam, Janine N. Copp and David F. Ackerley New York, NY United States: Springer, 2014. doi:10.1007/978-1-4939-1053-3. A large number of mutants would be produced. The mutant was cloned into a linearized pET-44a vector and transformed into E. co/i, which was cultivated by using a 96-well plate in a 2×YT culture solution containing an HPPD-inhibiting herbicide (such as 1-2 μM tembotrione) and a substrate tyrosine (1 g/L) in a shaker at 28° C. and 150 rpm for 24 hours for expression, and then the mutants were rapidly screened out according to their color browning. By using the method, 10 single amino acid mutants, A103S, H141R, H141 K, H141T, A165V, V191I, R220K, G342D, D370N and K410I, were screened out. The color reaction of these resistant mutants in the presence of tembotrione and the metabolic product of benzuofucaotong relative to that of the wild type was as shown in FIG. 1.
Similarly, the color reaction of these mutants in the presence of the other three HPPD-inhibiting herbicides huanbifucaotong, topramezone and mesotrione were determined, see FIGS. 2 and 3. The resistance/tolerance of each of the mutants to the five herbicides was roughly estimated on the basis of color changes thereof and the results were shown in Table 1. The more the plus sign “+”, the deeper the color and the higher the resistance/tolerance as compared to the wild type.
HPPD-inhibiting herbicides inhibited HPPD enzymatic activity. When tyrosine was converted to 4-hydroxyphenylpyruvate (HPP) under the action of tyrosine transaminase, the inactivated HPPD was unable to oxidize 4-hydroxyphenylpyruvate into homogentisic acid (HGA). HGA was dark brown. Therefore, if an HPPD mutant was resistant to or tolerant to an herbicide, after expressed in E. coli, the mutant could also oxidize 4-hydroxyphenylpyruvate into homogentisic acid, whereby dark brown appeared. Therefore, E. coli was cultured in a 2×YT culture medium containing a HPPD-inhibiting herbicide and a substrate tyrosine using a 96-well plate to express HPPD, and these mutants were rapidly screened according to their color changes. • (1) Preparation of 2×YT culture medium (1 g/L L-Tyr, 0.1 mM IPTG, 0.01 mM MnCl2 and 100 mg/L ampicillin were added). • (2) 0.1 mL of the above medium was added to each well of a 96-well plate, and the expression clones of OsHPPD wild type or mutant (OsHPPD Mut) from the E. coli plate obtained by the above transformation were subjected to liquid culture in the 96-well plate. HPPD inhibitors having a final concentration of 1 μM-20 μM were added according to different selected agents, for example, the final concentration of tembotrione was 1.7 μM while mesotrione was 10 μM. […]

[2] = test system: OsHPPD proteins; assay: Inhibitory activity (IC50) of the herbicide 101 and huanbifucaotong against OsHPPD proteins; type: biochemical, Oryza sativa; conditions: herbicides 101 and huanbifucaotong
Method: (§1) • 1. The activity of a HPPD enzyme was determined by detecting the conversion of 4-hydroxyphenylpyruvate (4-HPP) to homogentisic acid (HGA) catalyzed by the HPPD enzyme and the conversion of HGA to maleylacetoacetate (MAA) catalyzed by homogentisate dioxygenase. […] 6 μl of 4-hydroxyphenylpyruvate (4-HPP) having a concentration that was as 50 times as the final concentration of the substrate were added to an ELSA plate, and then 294 μL of hydroxyethylpiperazine ethanesulfonic acid (HEPES) with a final concentration of 25 mM and pH of 7, 2 mM of Vitamin C, 10 mM FeSO4, 50 nM homogentisate dioxygenase and 5 to 240 nM HPPD enzyme were added thereto at one time. The final concentration of reaction substrate 4-HPP usually ranged from 1 to 100 μM. • 3. The absorbance changes of the reaction wells at 318 nm were continuously monitored by a UV ELISA detector (ReadMax 1900 photoabsorption type full-wavelength microplate reader) (Shanghai). • 4. Determination of Km, Kcat and Kcat/Km of OsHPPDs
• 5. Determination of inhibitory activity (IC50) of the herbicide 101 and huanbifucaotong against OsHPPD proteins
Due to the unique properties of each of 101 and huangbifucaotong, the degree of the increased IC50 value is not completely consistent for the two HPPD herbicides.

[3] = test system: OsHPPD; assay: HPPD enzyme activity assay: Km, Kcat and Kcat/Km of OsHPPDs; type: biochemical, Oryza sativa; conditions: for Km: substrate 4-HPP
Method: The rice OsHPPD protein and homogentisate 1,2-dioxygenase (HGD) were obtained by heterologously expressed in E. coli wherein the gene was inserted into the pET 15b expression vector and expressed in the BL21 (DE3) expression strain, and purified by the Ni-NTA resin. • (1) The HPPD open reading frame (ORF) of the positive clone was cloned into the pET-15b vector to form a 6His-HPPD expression vector, and transformed into the BL21 (DE3) cell. The expression strain was inoculated in 10 mL of 2×YT culture medium, and cultivated overnight on a shaker at 37° C. and 200 rpm. The 10 mL of the culture was inoculated in 1 L of 2×YT culture medium and cultivated until the OD600 reached 0.6-0.8, cooled to a temperature of 16° C., and subjected to induced-expression with 0.2 mM IPTG (isopropyl thiogalactoside) overnight. The strains were collected by centrifugation at 2800×g. • (2) The collected strains were re-suspended with the buffer A (50 mM Tris pH 8.0, 500 mM NaCl, 20 mM imidazole), to which PMSF (phenylmethanesulfonyl fluoride) at the final concentration of 1 mM and 250 μL of a protease inhibitor cocktail (i.e., a mixture of multiple protease inhibitors), and mixed. The cells were broken by ultrasound in ice-bath (40% total power, work for 3 seconds/6 seconds interval, 2×30 minutes (Ningbo Scientz Biotechnology Co., Ltd., Ningbo, China)), and centrifuged at 12000 rpm at 4° C. for 30 minutes; and the supernatant was filtered with a 0.22 μm filter membrane. • (3) Purification with the Ni-NTA column: the supernatant was in contact with the Ni-NTA resin, then rinsed with a buffer A containing 50 mM imidazole to remove the impurities, and finally, eluted with an elution buffer containing 400 mM imidazole. • (4) The approximate purity of the protein of interest was analyzed by SDS-PAGE. The eluates containing of the protein of interest were combined and concentrated by an ultrafiltration device (10 kDa molecular weight cut-off, Amicon Ultra). The solution was replaced with a solution containing 20 mM Tris-HCl and having a pH of 7.5 for at least 3 times to desalt. The total protein concentration was determined by the BCA method.
as §1
Vmax is the maximum catalytic reaction rate achievable by enzymatic catalysis. The Michaelis constant Km is the concentration of a substrate required when the enzyme catalyzed the reaction to achieve half of the maximum rate (Vmax). The Km value is a constant and independent of the enzyme concentration, and altered as substrate type, reaction temperature, pH, and ionic strength changed. […] is a catalytic constant of an enzyme and referred to the number of substrate molecules that could be catalyzed by an enzyme molecule or enzyme active center per second. KCat/Km represents the catalytic efficiency of enzyme. It could be seen from the data in the table that the catalytic efficiency of most HPPD mutants was enhanced.

| Molecule | Km [3] | other results |
| --- | --- | --- |
| B1 |  | color change compared with wild type ([1]; tembotrione and metabolic product of benzuofucaotong, FIG. 1): obviously deeper than that of the wild type |
| B2 | 6.3 µM | resistance in in vitro enzyme activity experiments [2]: relatively high resistance; affinity to substrate (Km) [3]: not reduced |
| B3 | 5.9 µM |  |
| B4 |  | resistance ranking in color reaction [1]: highest resistance |
| B5 |  | relative resistance to Huanbifucaotong ([1]; Table 1, single-site mutants, estimated from color change, wild type = +): + |
| B6 | 7.6 µM |  |
| B7 | 9.7 µM | resistance in in vitro enzyme activity experiments [2]: relatively high resistance; affinity to substrate (Km) [3]: not reduced |
| B8 | 5.1 µM |  |
| B9 | 7.4 µM |  |
| B10 | 23 µM |  |
| B11 | 30.6 µM |  |
| B12 | 7.9 µM |  |
| B13 | 9.5 µM | resistance ranking in color reaction [1]: highest resistance |
| B14 | 2.1 µM |  |
